Patent US8563513 (VAN ANDEL RESEARCH INSTITUTE, dated 2013)
Where no end group is shown, it is not given here.

T1: MBP-PTH1R ECD-(His)6 fusion protein (UniProt Q03431 29-187)
T1 construct: range 29-187; Expressed in E. coli, disulfide shuffled in vitro; also called MBP-PTH1R ECD-H6; MBP-PTH1R ECD fusion protein
T1 sequence: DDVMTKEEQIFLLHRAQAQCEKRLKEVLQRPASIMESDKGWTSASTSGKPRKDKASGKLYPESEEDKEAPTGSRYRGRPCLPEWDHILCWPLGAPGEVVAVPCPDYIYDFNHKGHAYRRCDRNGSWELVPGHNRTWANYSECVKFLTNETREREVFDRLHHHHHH

B1: PTHrP(12-34)OH (peptide)
peptide: GKSIQDLRRRFFLHHLIAEIHTA-OH
notes: Free C-terminal carboxylic acid
B2: PTH(12-34)NH2 (peptide)
peptide: GKHLNSMERVEWLRKKLQDVHNF-NH2
B3: PTHrP(12-34)NH2 (peptide)
peptide: GKSIQDLRRRFFLHHLIAEIHTA-NH2
notes: also called C-terminally amidated 12-34 fragment of PTHrP

Tests used:
[1] = molecular target: T1, MBP-PTH1R ECD-(His)6 fusion protein; experiment: AlphaScreen competition against biotin-PTH(7-34)NH2 (23 nM) for MBP-PTH1R ECD-H6 (23 nM)
Protocol: (§1) ECD-peptide binding assays. The binding of peptides to the MBP-PTH1R ECD-H6 fusion protein was assessed using an AlphaScreen assay (Perkin-Elmer). […] The pre-coupling reactions were mixed, un-labeled competitor peptides were added as indicated, and the reactions were incubated 4 to 5 hrs to reach equilibrium. Photon counts were recorded in 384-well optiplates using an Envision 2104 plate reader (Perkin-Elmer). Prism 5.0 software (GraphPad Software, San Diego) was used to fit the data to a fixed-slope dose-response inhibition equation for determination of IC50 values. Real-time analysis of the binding of peptides to the isolated PTH1R ECD using the Octet Red system (ForteBio) was performed as described in below.

[2] = molecular target: T1, MBP-PTH1R ECD-(His)6 fusion protein; experiment: AlphaScreen competition; competitor titrated against biotin-PTH(7-34)NH2 (23 nM) on MBP-PTH1R ECD (23 nM) [panel B]
Protocol: as §1

[3] = molecular target: T1, MBP-PTH1R ECD-(His)6 fusion protein; experiment: AlphaScreen competition; competitor titrated against biotin-PTH(7-34)NH2 (23 nM) on MBP-PTH1R ECD (23 nM) [panel A]
Protocol: as §1

IC50 [1] [nM]	IC50 (read off the curve) [2] [nM]	IC50 (read off the curve) [3] [nM]	Binder
~2000	~2000	–	B1
~1000	–	~800	B2
~2000	~1000	–	B3
